Consider one molecule from patent US20260000752A1 (AKSTON BIOSCIENCES, published 2026).

In this test the target is T1, recombinant human Fc(gamma)RI, biotinylated (R&D Systems) (human, UniProt P12314 16-288).
T1 construct: also called rhFc(gamma) receptor I; Fc(gamma) Receptor I
In words: ELISA pH 7.4; insulin-Fc coated, biotinylated rhFc(gamma)RI titrated (Example 51). (In general: ELISA stands for enzyme-linked immunosorbent assay.)

T1 sequence (P12314 16-288 limits assumed): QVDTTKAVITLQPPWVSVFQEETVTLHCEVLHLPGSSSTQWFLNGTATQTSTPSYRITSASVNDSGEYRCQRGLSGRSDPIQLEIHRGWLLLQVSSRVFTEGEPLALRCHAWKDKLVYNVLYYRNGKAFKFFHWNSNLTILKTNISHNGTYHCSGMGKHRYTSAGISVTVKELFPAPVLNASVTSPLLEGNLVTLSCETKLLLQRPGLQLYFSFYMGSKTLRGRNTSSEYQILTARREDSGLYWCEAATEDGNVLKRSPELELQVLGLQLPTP

B1: insulin-Fc fusion protein of SEQ ID NO: 29 (Fc fusion)
chain: FVNQHLCGSHLVEALELVCGERGFHYGGGGGGSGGGGGIVEQCCTSTCSLDQLENYCGGGGGQGGGGQGGGGQGGGGGDCPKCPAPEMLGGPSVFIFPPKPKDTLLIARTPEVTCVVVDLDPEDPEVQISWFVDGKQMQTAKTQPREEQFNGTYRVVSVLPIGHQDWLKGKQFTCKVNNKALPSPIERTISKARGQAHQPSVYVLPPSREELSKNTVSLTCLIKDFFPPDIDVEWQSNGQQEPESKYRTTPPQLDEDGSYFLYSKLSVDKSRWQRGDTFICAVMHEALHNHYTQESLSHSPG
Regarding B1, the binding result is reported as “binds”.
